Measured values from patent US20130189280A1.

Tests used:
[1] = biological target: fibrinogen from human plasma (Sigma) (human) (UniProt P02671); assay: ELISA, fibrinogen titrated on immobilized K1; apparent Kd (FIG. 21)
[2] = biological target: human hemoglobin (Sigma) (human) (UniProt P69905)
[3] = biological target: complex of recombinant human serum albumin and hemin (rHSA-heme) (human) (UniProt P02768); assay: ELISA, rHSA-heme against rHSA on immobilized K3 (FIG. 22)
[4] = biological target: fibrinogen from human plasma (Sigma) (human) (UniProt P02671); assay: ELISA, fibrinogen titrated on immobilized K3; apparent Kd (FIG. 21)

Substance	Kd [1]	Kd [2]	fold increase of binding affinity against rHSA without heme [3]	Kd [4]
K1 domain (Gly982-Gly1154) of lysine gingipain Kgp from Porphyromonas gingivalis W83, recombinant (from UniProt Q51817 982-1154)	1500 nM	360 nM		
K3 domain (Ala1427-Gly1602) of lysine gingipain Kgp from Porphyromonas gingivalis W83, recombinant, non-tagged (from UniProt Q51817 1427-1602)		154 nM	9 fold	570 nM
